Measured values reported in publication PMC9352680, “A comprehensive thermodynamic model for RNA binding by the Saccharomyces cerevisiae Pumilio protein PUF4”.

T1: PUF4 RNA-binding domain (Saccharomyces cerevisiae, UniProt P25339 537-888)
T1 sequence: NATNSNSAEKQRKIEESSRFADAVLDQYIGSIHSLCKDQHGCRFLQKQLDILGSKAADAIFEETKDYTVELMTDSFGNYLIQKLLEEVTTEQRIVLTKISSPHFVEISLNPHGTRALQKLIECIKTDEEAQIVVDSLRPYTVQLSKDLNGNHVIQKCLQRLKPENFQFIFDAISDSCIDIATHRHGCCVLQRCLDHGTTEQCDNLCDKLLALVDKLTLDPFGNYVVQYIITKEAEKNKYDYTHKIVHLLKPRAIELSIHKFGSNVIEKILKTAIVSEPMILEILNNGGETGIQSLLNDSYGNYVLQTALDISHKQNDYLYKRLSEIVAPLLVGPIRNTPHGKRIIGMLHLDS

B1: Id_ii_S2_P3E.2_K3.1_C3.2_[C-2T]_[T-1G]_H3.1_A3.1_F3.1_T3.2_[T9C]_[A10C] (ssRNA)
RNA: UUUGAUUAAUAUGAUAUCGUUCUUUCUUGUGUAUAUACCUUCUUUCUCGAUAUCAUAUUAAUCUUU
B2: Id_ii_S2_P3E.2_K3.1_C3.2_[C-2T]_H3.1_A3.1_F3.1_T3.2_[T9C]_[A10T] (ssRNA)
RNA: UUUGAUUAAUAUGAUAUCGUUCUUUCUUUUGUAUAUACUUUCUUUCUCGAUAUCAUAUUAAUCUUU
B3: Id_ii_S2_P3E.2_K3.1_C3.2_[C-2T]_[T-1A]_H3.1_A3.1_F3.1_T3.2_[T9A]_[A10T] (ssRNA)
RNA: UUUGAUUAAUAUGAUAUCGUUCUUUCUUAUGUAUAUAAUUUCUUUCUCGAUAUCAUAUUAAUCUUU
B4: Id_ii_S2_P3E.2_K3.1_C3.2_[C-2T]_[T-1A]_H3.1_A3.1_F3.1_T3.2_[T9A] (ssRNA)
RNA: UUUGAUUAAUAUGAUAUCGUUCUUUCUUAUGUAUAUAAAUUCUUUCUCGAUAUCAUAUUAAUCUUU
B5: Id_ii_S2_P3E.2_K3.1_C3.2_[C-2T]_[T-1A]_H3.1_A3.1_F3.1_T3.2_[T9C]_[A10T] (ssRNA)
RNA: UUUGAUUAAUAUGAUAUCGUUCUUUCUUAUGUAUAUACUUUCUUUCUCGAUAUCAUAUUAAUCUUU
B6: Id_ii_S2_P3E.2_K3.1_C3.2_[C-2A]_[T-1G]_H3.1_A3.1_F3.1_T3.2_[A10T] (ssRNA)
RNA: UUUGAUUAAUAUGAUAUCGUUCUUUCUAGUGUAUAUAUUUUCUUUCUCGAUAUCAUAUUAAUCUUU
B7: Id_ii_S2_P3E.2_K3.1_C3.2_[C-2T]_[T-1A]_H3.1_A3.1_F3.1_T3.2_[T9A]_[A10C] (ssRNA)
RNA: UUUGAUUAAUAUGAUAUCGUUCUUUCUUAUGUAUAUAACUUCUUUCUCGAUAUCAUAUUAAUCUUU
B8: Id_ii_S2_P3E.2_K3.1_C3.2_[C-2T]_[T-1A]_H3.1_A3.1_F3.1_T3.2_[A10T] (ssRNA)
RNA: UUUGAUUAAUAUGAUAUCGUUCUUUCUUAUGUAUAUAUUUUCUUUCUCGAUAUCAUAUUAAUCUUU
B9: Id_ii_S2_P3E.2_K3.1_C3.2_[C-2T]_H3.1_A3.1_F3.1_T3.2 (ssRNA)
RNA: UUUGAUUAAUAUGAUAUCGUUCUUUCUUUUGUAUAUAUAUUCUUUCUCGAUAUCAUAUUAAUCUUU
B10: Id_ii_S2_P3E.2_K3.1_C3.2_[C-2T]_[T-1A]_H3.1_A3.1_F3.1_T3.2_[T9G]_[A10C] (ssRNA)
RNA: UUUGAUUAAUAUGAUAUCGUUCUUUCUUAUGUAUAUAGCUUCUUUCUCGAUAUCAUAUUAAUCUUU
B11: Id_ii_S2_P3E.2_K3.1_C3.2_[C-2A]_[T-1G]_H3.1_A3.1_F3.1_T3.2_[A10G] (ssRNA)
RNA: UUUGAUUAAUAUGAUAUCGUUCUUUCUAGUGUAUAUAUGUUCUUUCUCGAUAUCAUAUUAAUCUUU
B12: Id_ii_S2_P3E.2_K3.1_C3.2_[C-2T]_[T-1A]_H3.1_A3.1_F3.1_T3.2_[A10G] (ssRNA)
RNA: UUUGAUUAAUAUGAUAUCGUUCUUUCUUAUGUAUAUAUGUUCUUUCUCGAUAUCAUAUUAAUCUUU
B13: Id_ii_S2_P3E.2_K3.1_C3.2_[C-2T]_H3.1_A3.1_F3.1_T3.2_[A10C] (ssRNA)
RNA: UUUGAUUAAUAUGAUAUCGUUCUUUCUUUUGUAUAUAUCUUCUUUCUCGAUAUCAUAUUAAUCUUU
B14: Id_ii_S2_P3E.2_K3.1_C3.2_[C-2T]_[T-1C]_H3.1_A3.1_F3.1_T3.2_[T9C]_[A10G] (ssRNA)
RNA: UUUGAUUAAUAUGAUAUCGUUCUUUCUUCUGUAUAUACGUUCUUUCUCGAUAUCAUAUUAAUCUUU
B15: Id_ii_S2_P3E.2_K3.1_C3.2_[C-2G]_H3.1_A3.1_F3.1_T3.2_[A10T] (ssRNA)
RNA: UUUGAUUAAUAUGAUAUCGUUCUUUCUGUUGUAUAUAUUUUCUUUCUCGAUAUCAUAUUAAUCUUU
B16: Id_ii_S2_P3E.2_K3.1_C3.2_[C-2T]_[T-1C]_H3.1_A3.1_F3.1_T3.2_[T9C]_[A10T] (ssRNA)
RNA: UUUGAUUAAUAUGAUAUCGUUCUUUCUUCUGUAUAUACUUUCUUUCUCGAUAUCAUAUUAAUCUUU
B17: Id_ii_S2_P3E.2_K3.1_C3.2_[C-2T]_[T-1C]_H3.1_A3.1_F3.1_T3.2_[A10T] (ssRNA)
RNA: UUUGAUUAAUAUGAUAUCGUUCUUUCUUCUGUAUAUAUUUUCUUUCUCGAUAUCAUAUUAAUCUUU
B18: Id_ii_S2_P3E.2_K3.1_C3.2_[C-2T]_H3.1_A3.1_F3.1_T3.2_[T9C]_[A10C] (ssRNA)
RNA: UUUGAUUAAUAUGAUAUCGUUCUUUCUUUUGUAUAUACCUUCUUUCUCGAUAUCAUAUUAAUCUUU
B19: Id_ii_S2_P3E.2_K3.1_C3.2_[C-2T]_[T-1A]_H3.1_A3.1_F3.1_T3.2_[A10C] (ssRNA)
RNA: UUUGAUUAAUAUGAUAUCGUUCUUUCUUAUGUAUAUAUCUUCUUUCUCGAUAUCAUAUUAAUCUUU
B20: Id_ii_S2_P3E.2_K3.1_C3.2_[C-2T]_[T-1G]_H3.1_A3.1_F3.1_T3.2_[T9G]_[A10T] (ssRNA)
RNA: UUUGAUUAAUAUGAUAUCGUUCUUUCUUGUGUAUAUAGUUUCUUUCUCGAUAUCAUAUUAAUCUUU
B21: Id_ii_S2_P3E.2_K3.1_C3.2_[C-2G]_H3.1_A3.1_F3.1_T3.2_[A10C] (ssRNA)
RNA: UUUGAUUAAUAUGAUAUCGUUCUUUCUGUUGUAUAUAUCUUCUUUCUCGAUAUCAUAUUAAUCUUU
B22: Id_ii_S2_P3E.2_K3.1_C3.2_[C-2A]_[T-1G]_H3.1_A3.1_F3.1_T3.2_[T9A]_[A10G] (ssRNA)
RNA: UUUGAUUAAUAUGAUAUCGUUCUUUCUAGUGUAUAUAAGUUCUUUCUCGAUAUCAUAUUAAUCUUU
B23: Id_ii_S2_P3E.2_K3.1_C3.2_[C-2G]_H3.1_A3.1_F3.1_T3.2_[T9A]_[A10G] (ssRNA)
RNA: UUUGAUUAAUAUGAUAUCGUUCUUUCUGUUGUAUAUAAGUUCUUUCUCGAUAUCAUAUUAAUCUUU

Target: T1, PUF4 RNA-binding domain
Experiment: Mg; RNA-MaP; 20 mM Na-HEPES pH 7.4, 30 mM KOAc, 0.75 mM MgCl2, 0.1% Tween-20, 5% glycerol, 0.1 mg/mL BSA, 2 mM DTT; 25 C; 0.0125-409.6 nM protein
Conditions: tags: N-His6-TEV cleaved; C-SNAP kept, Cy3B-labelled; label: tethered on chip by stalled RNA polymerase

Binder | Kd [nM]
B1 | 26.5
B2 | 4.94
B3 | 14.1
B4 | 16.9
B5 | 5.43
B6 | 4.88
B7 | 16.3
B8 | 3.9
B9 | 1.24
B10 | 5.76
B11 | 5.7
B12 | 31.5
B13 | 1.55
B14 | 7.76
B15 | 2.02
B16 | 4.12
B17 | 1.17
B18 | 2.82
B19 | 6.09
B20 | 3.09
B21 | 8.98
B22 | 10.2
B23 | 7.87
